Measured values as given in article doi:10.1101/2021.07.22.453398.
Read-outs that look alike come from different tables or passages of the source.

Key:
[1] = target: bison NHA2ΔN (structural construct, tag removed by TEV) (Bison bison); assay: cryo-EM structure
[2] = target: bison NHA2ΔN (structural construct, tag removed by TEV) (Bison bison); assay: cryo-EM structure; remark: listed apart in the source

Substance: bison NHA2ΔN (structural construct, tag removed by TEV) (domain or fragment)
- stoichiometry N [1]: 2
- stoichiometry N [2]: 2
